Assay results published in publication PMC9714913.

Target: AMC009 SOSIP gp120-gp41 protomer (HIV-1 (clade B, donor H18877))
Experiment: cryo-EM structure; AMC009 SOSIPv5.2 trimer with 10-fold molar excess of ACS114 Fab for 12 hours at RT, then 6-fold molar excess of ACS122 Fab for 15 minutes; complex purified by SEC in TBS; ~4.0 Å

AMC009 SOSIP gp120-gp41 protomer (complex)
stoichiometry N: 3
